Test results as given in article PMC5777823 (eLife, 2017).

Target: T1, CENP-L:CENP-N^230-C complex (human, UniProt Q8N0S6 1-344; Q96H22 230-339)
T1 construct: CENP-L, human; CENP-N, human, residues 230 to the C-terminus of the 339-residue protein; Form used in SEC and ITC, named without GST; tag probably cleaved with 3C protease; also called CENP-LN^230-C; CENP-LN^230-C dimer; source: Tnao38 insect cells (baculovirus, co-expressed), purified (GSH-Sepharose, Superdex 200)
Experiment: ITC; 25°C, ITC200; 20 mM HEPES pH 7.5, 2.5% glycerol, 300 mM NaCl, 1 mM TCEP; protein in the cell at 5–8 µM, ligand at 50–80 µM; single site binding model
Details: both partners purified

T1 sequence (Q8N0S6 whole entry, chain 1 of 2, the tested form may be a part): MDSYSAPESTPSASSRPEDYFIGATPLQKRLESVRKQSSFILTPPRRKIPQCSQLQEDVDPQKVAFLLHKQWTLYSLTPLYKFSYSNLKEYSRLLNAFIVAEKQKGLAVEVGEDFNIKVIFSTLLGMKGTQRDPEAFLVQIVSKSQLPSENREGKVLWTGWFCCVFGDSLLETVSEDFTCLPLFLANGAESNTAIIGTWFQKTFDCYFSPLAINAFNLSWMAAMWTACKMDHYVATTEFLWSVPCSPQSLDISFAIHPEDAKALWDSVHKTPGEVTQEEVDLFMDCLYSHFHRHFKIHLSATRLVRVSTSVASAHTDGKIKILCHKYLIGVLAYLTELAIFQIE
T1 sequence (Q96H22 230-339, chain 2 of 2): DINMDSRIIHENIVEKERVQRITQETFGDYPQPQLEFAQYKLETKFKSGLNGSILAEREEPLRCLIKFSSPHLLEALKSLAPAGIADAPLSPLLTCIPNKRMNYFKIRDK

B1: CENP-C^225-364 (domain or fragment, human, UniProt Q03188 225-364, looked up)
chain: SDEEDKTSEGQERKPSGSSQNRIRDSEYEIQRQAKKSFSTLFLETVKRKSESSPIVRHAATAPPHSCPPDDTKLIEDEFIIDESDQSFASRSWITIPRKAGSLKQRTISPAESTALLQGRKSREKHHNILPKTLANDKHS
notes: pGEX-6P-2rbs; named without GST in the assays; source: bacteria, purified as described (Klare et al., 2015)
Kd: 1000 nM
